The record followed here is PMC11637584 (2024).

The target in the assay is Ubiquitin (Homo sapiens, UniProt P0CG48). The assay is described as follows: BLI.

B1: MERS-CoV papain-like protease (PLpro) PLpro (protein)
chain: QLTIEVLVTVDGVNFRTVVLNNKNTYRSQLGCVFFNGADISDTIPDEKQNGHSLYLADNLTADETKALKELYGPVDPTFLHRFYSLKAAVHKWKMVVCDKVRSLKLSDNNCYLNAVIMTLDLLKDIKFVIPALQHAFMKHKGGDSTDFIALIMAYGNCTFGAPDDASRLLHTVLAKAELCCSARMVWREWCNVCGIKDVVLQGLKACCYVGVQTVEDLRARMTYVCQCGGERHRQIVEHTTPWLLLSGTPNEKLVTTSTAPDFVAFNVFQGIETAVGHYVHARLKGGLILKFDSGTVSKTSDWKCKVTDVLFPGQKYSSDCN
As usually defined, the Kd is the equilibrium constant for the complex coming apart. High values mean a looser complex, low ones a tighter complex. Take B1: the Kd is 40.8 µM.
